B1: Br008836: GH3 protein, Bra008836 (protein, listed as Brassica rapa)
chain: MKPISNNDETWDATLKDLTSNVKEIQDNVLEEIITPNLKTEYLQRFNMDRFDKKLFKKNVPVVSYEDIKPDIDRVVNGESSDVISARPITGFLLSSGTSGGAQKMMPWNNKYLDNLTFAYDLRMHVITKHVKGLEEGKGMMFLFTKQETKTPSGLLARVATSSYFKSDYFTNRPSNWYYSYTSPDEVILCSNNTQSLYCHLLCGLLQRDEVVRMGSIFASVMVRAIKFLETYWEELCSNIRSGRLSEWITDLGCRSSVSLVLGGPRPDLADTIETICNQSSWKGIVTRIWPNTKYIETVVTGSMGQYVPTLNYYCSDLPLVSTTYGSSETTFGINVDPLCKPEDVSYAFMPNMSYFEFITMDGEKRDVVDLHDVKIGCTYEPVVTNFAGLYRMRVGDVLLVTGFYNNAPQFRFVRRENVVLSIDSDKTNEEDLFKAVSQAKLVLDSSDLFLEDFTSYADTSTFPGHYVIYVEVKAKGGNNHLELNEEVFSKCCSVMEDSLDNVYKRCRFKDGSVGPLEIRVVDKGTFESLMDFFINQGASTGQYKTPRCIKSGKALELMEDRVVAKFFSS
B2: Br016359: GH3 protein, Bra016359 (protein, listed as Brassica rapa)
chain: MSVISVLTEKANDKLKILEDLTSNVKQIQDNVLEEILTLNTNTEYLQRFFHGKFDKEIFKKNVPVGTYEDVKPYIQRVANGEPSNVISTRPITGFLLSSGTSGGAQKIMPWNEKFLDYLTFMYDLRMHVITNYVKGLEKGKAMMFYFTKLESTTASGLPARTASSSYLKSSYFKNRPCNWYYTYTSPDEVILCPDNKQSLYCHLLCGLVQRNEVTRMGSIFASVMVRAIKFLEDSWEELCSNIRSGQLSEWITDPGCRDSVSMVLGGPHPEVANTVEKICNEKCWKGILKRLWPRTKYIETIVTGSMAQYVPTLNYYCNDMLPLVSTIYASSETTFGLNLNPLCKPEDVSYTIMPNVSYFEFIPLDGDENDVVDLADLKLGCSYELVVTNFSGLYRIRVGDILLVTGFYNKAPQLRFIRRDNVVLSIDMDKTNEEDLFNAVNRAKLIINSSGLMLTDFTSHGDISTIPGHYVIYWEVEDKREDKTKHICMELKGDAFSECCLVMEDSFDNVYKRCRFREKTVGPLEIKVVLHGTFDSLMDFFISQGASIGQYKTPRCIGSGKPLELLEKNVVATFFSTGDCSFKN
B3: Sm93250: GH3 protein, Selmo1|93250 (protein, listed as Selaginella moellendorffii)
chain: MDPALFRDDIESKTKDAAAVQANLLSQMMELNGETEYLRRYGGRFDSLPIIEYHDVADEVQRIANGDTSPILTAEPVVRFFKSSGTVTGEPKLIPATSKSLELLFRRPVYMMESDVCLGFLFAKPENKSPGGLPVSTTSSMFFKVQGENLEKMFTSPMKLLLAPDINQSLYCQLLCGLIRSEDVTQVFAALAITLVEALRLLEEAWSELADDVQTGTLNSKITDPTLRSSLSLCLRPNLKLAQSIRKECTADNAWCGIVERLWPKTKVIVTITTGGMAPYAPAVRKYGGSVPIVSGDYVCTECVLGFNLDPFCPPESVSFTIHPEYAYYEFLHYPQKLTDGSTVKLVDVKVGEEYELVVSTWSGLYRYKVGDIVRVTGFHNFSPNISFVHRLNAELDIAGERSTEAELQVAVQKSQHCLPASQELVDFTCHQDGQRYLIFWEIKNGDSLNPMILETCCCVLDTSLTERYKQRRENGLIGPLRLCIVRGKTFKALQQYSLEKGINPTQYKTPRCITSPEMIAILQAGITQDCQTPA
B4: Br040812: GH3 protein, Bra040812 (protein, listed as Brassica rapa)
chain: MSSIVELSSLEELTLNAEQIQDDLLEKILRLNSNTEYLRRFLHGSNDKELFKKNVPLANYEDVKPYIERVANGEPSDLISGGPVTRFFRSSGTSGGKQKIFPVNDEAIEQLGYVLALRSLVMSKHFSDNGVEQGKTMEFHYTKPESTTPSGLPVAAAFTSFFKSDYFKNRPSKSQYTSPDQVILCPDNKQSLYCHLLCGLSQRDEVVRFGATFAHALVRAIDFLESNWKELCGNIRLGHVSEWITDLGCRSSVSAIIGGPNPELADLIEQECSHKSWEGIVTRLWPKAKRIECVLTGQMAQYIPILDFYCNKLPLVSTVYGSSESIFGFNVDPLCKPQDVSYTFVPNTSYFEFLPVDHEGDMTSIVDLVNVKLGCYYEPVVTTCFGLNRYLIGDILEVTGFYNNTPQFRFVRRKNMVLSVETETTTEDDILKALARATFVLESSNLMLMDFTSSADISTFPGHYVFYWELKGKEVNDVLVLDEKTLMGCCYVLEESFGSTYRLKRRTGLIGALEIRVVEQGTFNSLTDYFISRGSSRAQYKTPLCINSSEASAVLENKVLARFHSEKSPPLDL
B5: Br029173: GH3 protein, Bra029173 (protein, listed as Brassica rapa)
chain: MSMWADLSDKLDEKVLEDLTSNVKQMQDDVLKEILTLNANTEYLRPFLHGSSDKELFKKNVPVTTYDDVKLFIDRVANGEPFDVISGKPVTGFSLSSGTSGGKRKMFPCNKKYLENLNFIYCYRSLVISKHFDGLEHGKGMVFNFCVPEQTTPSGLPVSAATTLFFKSDYFKNRPSYWHWSFTSPDEVILCLDNKQSLYCHLLCGIVLRDEVVKVGTAFVSTLLRVITFLEKHWKEICTNIRYGHLSEWITDISCRDSVSKILGEPNPELADLIENECNQKSWEGIIQRLWPKTKFIESIATGQMAQHIPTLEFYSNKLPLISSSYVSSETMFGININPLCKPQDVSYTFMPHFSYFEFLLVDAGDEVEIVDLVDVKLGCHYETLVTNHSGLHRYKMGDIVQVTGFYNNAPQFRFARRGNLVLSVHMEITTDQALLNAVTHAKMVLESSNLMLMDFTGYADISTTPGHYVLYWELKGKYSNDIAKIDDKVLVECCYVVEESLDNFYKEYRKNGSIGALEIRVVQQGTFDSLMEFFISQGASSTQYKTPICIKSTEAIAILERKVRARFFTDKSLSLKFSS
B6: Sm87623: GH3 protein, Selmo1|87623 (protein, listed as Selaginella moellendorffii)
chain: MDATAILSAIACDEQALGFMEHVTRHVSSVQDYVLQLLLEANAGTDYFQRHGLYGIPTKEEFRRLLPITTYSDMEADFQRLANGDESKTICAARVLEMLTSSGTSGGKQKLFPKSPSYDQEFVALNRVARAALNKKAPYASRGKSLQFFYVRKPGITSGGVTTTSGLSGYFTSPAFRQRKLDPESGYTSPDQVILCVDYQQASYCHLLCGLTQSQEVVSIGAPFASTLVRSLKALKDLWQELCVDIETGRVNDNIVSDLSVKHAVNALLKPDPKLAALVRRECSKSNWRGIVRRLWPRARIIQAIVTGSMQQYVPAIDFFSDGLPIASSIYAASECSTLGVNLSPVCSPYDVRYSPFPCFVYYEFLPVSSSSSSSPRRDDLVQLAEVELGREYELVITTRAGLYRYRVGDVLKVVGFKNSMPQFSFVGRAGVLLSVDTDKTDEVELHTAVTTAAAVMAKRNRGDVRLLDYTSRVNLSSQPGHYVVYWELSLDAAMESLEAELRECCSVMEESLSVVYRRNRREGSVGALEIKVVEPGTFDRIVDHVVFVGQGSIGQYKTPRCARDPAVLRILESSVVESSRAR
B7: Br031718: GH3 protein, Bra031718 (protein, listed as Brassica rapa)
chain: MSLGCDLSVLEELTSNAKQIQDDVLTKILKANTNTEYLSRFLEGSSEKELFKKNVPVVSYEDVKPYIDRVANGEPSDILSGKPITAFFRSTGTSSGEKKIFPANDNFEDILLGLALSSLVMSKHVDGYKQGKVMIFKFIQPISTTPCGLPLAPSITIIMKSKCYRSPGKRSTTPDEIIMCTDPKQSMYCQLLCGLVQRDEVVSVGALFASVLVQIIRFLEKYWKELCSNIRSGHVSDWITDHCCRDSVSTILGEPNPELADLIENECGQESWQGIVSRLWPKTKCVETIVTGIMAQYIPALEFYSDKLPIVSSIYGSSETFFGLNVNPLCKPQHVSYTFLPNMSYFEFIHVDADGEATGEIVDLVDVKSGGYYEPLVTNYSGLYRCRVGDVLHVTGFYNNAPQFRFVRRKNTVLSIFVESTTEEDVLKALDRATVVLESSDLMLTGFTCFGDVSTVPGHYVFYLELKAKVNNDTNVLLLDEKVLVEYCCVMEESLSSFYRSLRRKDGPIGPLEVRVVQQGTFDSLMEFFVSRGASITQYKTPICINSVEASRVLEDKVLARFFSDKSPTI

What was measured:
Format in all cases: biochemical
[1] = LC-MS assay of GH3 conjugation of dicamba with Asp or Glu; settings: LC-MS; for Detected auxin conjugates: Dicamba-Asp: dicamba with Asp; for Detected auxin conjugates: Dicamba-Glu: dicamba with Glu
Summary of the method: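 GH3 superfamily homologs, found by Blast searches of public databases using AtGH3.17 (Q9FZ87), were synthesized with E. coli-optimized codons and an N-terminal his-tag, expressed in OverExpress C41(DE3) cells after 0.2 mM IPTG induction at 16° C., and Ni-NTA purified. Conjugation of dicamba with Asp or Glu was measured by LC-MS using conjugate standards.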

[2] = LC-MS assay of GH3 conjugation of IAA with Asp or Glu; settings: LC-MS; for Detected auxin conjugates: IAA-Asp: IAA with Asp; for Detected auxin conjugates: IAA-Glu: IAA with Glu
Summary of the method: (§1)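 Kinetic parameters come from Michaelis-Menten fits of initial velocities. Velocities reflect LC-MS quantification, against standards, of Asp or Glu conjugates formed by purified GH3 (44 to 164 μg/mL) with 5 mM ATP and MgCl2 at pH 8.0, 30° C.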

[3] = LC-MS assay of GH3 conjugation of 2,4-D with Asp or Glu; settings: LC-MS; for Detected auxin conjugates: 2,4-D-Asp: 2,4-D with Asp; for Detected auxin conjugates: 2,4-D-Glu: 2,4-D with Glu
Summary of the method: as §1

Molecule | Detected auxin conjugates: Dicamba-Asp [1] | Detected auxin conjugates: Dicamba-Glu [1] | Detected auxin conjugates: IAA-Asp [2] | Detected auxin conjugates: IAA-Glu [2] | Detected auxin conjugates: 2,4-D-Asp [3] | Detected auxin conjugates: 2,4-D-Glu [3]
B1 | No | No | Yes | Yes | Yes | Yes
B2 | No | No | Yes | No | Yes | No
B3 | No | No | Yes | No | No | No
B4 | No | No | Yes | Yes | Yes | Yes
B5 | No | No | Yes | Yes | Yes | Yes
B6 | No | No | Yes | No | Yes | No
B7 | No | No | No | No | No | No

From patent publication US20150351390A1, “COMPOSITIONS AND METHODS FOR AUXIN-ANALOG CONJUGATION” (PIONEER HI-BRED INTERNATIONAL, INC., priority 2012, published 2015)
